B1: scFv; the commonest letter at each place (parent)
chain 1: EVKLDETGGGLVQPGRPMKLSCVASGFTFSDYWMNWVRQSPEKGLEWVAQIRNKPYNYETYYSDSVKGRFTISRDDSKSSVYLQMNNLRVEDMGIYYCTGSYYGMDYWGQGTSVTVS
chain 2: DVVMTQTPLSLPVSLGDQASISCRSSQSLVHSNGNTYLRWYLQKPGQSPKVLIYKVSNRFSGVPDRFSGSGSGTDFTLKISRVEAEDLGVYFCSQSTHVPWTFGGGTKLEIK

In data set [1] the parent is B1. Description: Kd (Tite-Seq). The following applies: with fluorescein; format: scFv 4-4-20, heavy + light.
In data set [2] the parent is B1. Description: yeast surface expression (ratio to wild type); higher = more expressed. As to conditions: format: scFv 4-4-20, heavy + light.

Bounds are passed on as bounds.

The Kd is the concentration at which binding is half-saturated. In the case of chain 1 M105P W108S, in data set [1], the equilibrium dissociation constant (Kd) was not below 10 µM. In data set [2], the yeast surface expression was determined as 0.621.

chain 1 M34K N35A: the Kd in data set [1] came out at 0.0692 µM. In data set [2], the yeast surface expression is 0.175.

For the variant chain 1 M34K N35S, the Kd in data set [1] is not below 10 µM. Besides, in data set [2], the yeast surface expression amounted to 1.46.

In the case of chain 1 M34W N35M, in data set [1], the Kd was not below 10 µM. Also, the yeast surface expression in data set [2] amounted to 0.653.

For chain 1 M34W N35C, in data set [1], the Kd was not below 10 µM. Also, the yeast surface expression in data set [2] stood at 0.721.

Consider chain 1 M34T N35D, for which the dissociation constant Kd in data set [1] was not below 10 µM. Besides, in data set [2], the yeast surface expression stood at 0.415.

For chain 1 M34K W36M, the Kd in data set [1] was not below 10 µM. In data set [2], the yeast surface expression is 0.273.

With chain 1 M34K W36C, the Kd in data set [1] was not below 10 µM. Further, the yeast surface expression in data set [2] was found to be 0.509.

Regarding chain 1 M34K W36F, the dissociation constant Kd in data set [1] is not below 10 µM. Also, the yeast surface expression in data set [2] was 1.23.

Take chain 1 M34L V37T: the Kd in data set [1] was not below 10 µM. Besides, in data set [2], the yeast surface expression came out at 0.546.

Turning to chain 1 M34H V37P, in data set [1], the Kd was not below 10 µM. Moreover, in data set [2], the yeast surface expression came out at 0.3.

Turning to chain 1 M34H V37W, the Kd in data set [1] is not below 10 µM. Also, the yeast surface expression in data set [2] came to 0.602.

Consider chain 1 M34C N35L V37F, for which the Kd in data set [1] is 0.0657 µM. For the same variant, the yeast surface expression in data set [2] came to 0.501.

Consider chain 1 M105I W108V, for which, in data set [1], the equilibrium dissociation constant (Kd) was 0.000724 µM. Further, the yeast surface expression in data set [2] amounted to 0.782.

For chain 1 M105I W108G, the Kd in data set [1] was not below 10 µM. The yeast surface expression in data set [2] was 0.529.

For chain 1 M105R Y107G, the Kd in data set [1] was not below 10 µM. Besides, in data set [2], the yeast surface expression is 0.615.

Take chain 1 M105K Y107L G109V: the Kd in data set [1] was not below 10 µM. Also, in data set [2], the yeast surface expression amounted to 0.223.

Regarding chain 1 M105K G109W, in data set [1], the Kd was not below 10 µM. In data set [2], the yeast surface expression was 0.118.

Regarding chain 1 G109S, the Kd in data set [1] came to 0.00361 µM. For the same variant, the yeast surface expression in data set [2] was 0.826.

Turning to chain 1 G109W, the dissociation constant Kd in data set [1] is not below 10 µM. In addition, in data set [2], the yeast surface expression came out at 0.217.

For chain 1 G109R, in data set [1], the Kd is not below 10 µM. Also, in data set [2], the yeast surface expression is 0.297.

chain 1 G109T: the Kd in data set [1] is not below 10 µM. Further, in data set [2], the yeast surface expression turned out to be 0.551.

For chain 1 G109Y, in data set [1], the Kd was not below 10 µM. For the same variant, the yeast surface expression in data set [2] is 0.212.

For chain 1 G109V, the Kd in data set [1] was not below 10 µM. In data set [2], the yeast surface expression worked out at 0.34.

For chain 1 M34E W36M, the Kd in data set [1] is not below 10 µM. The yeast surface expression in data set [2] was 0.428.

Consider chain 1 M105I Y107Q, for which the Kd in data set [1] was 8.13 µM. The yeast surface expression in data set [2] is 0.872.

As to chain 1 M105I Y107W, in data set [1], the Kd turned out to be 0.105 µM. The yeast surface expression in data set [2] worked out at 0.669.

Consider chain 1 M105I Y107S, for which the Kd in data set [1] was not below 10 µM. The yeast surface expression in data set [2] was found to be 0.853.

For the variant chain 1 M34C W36L, the Kd in data set [1] was not below 10 µM. In data set [2], the yeast surface expression was 0.524.

Turning to chain 1 M34I N35W, the Kd in data set [1] was not below 10 µM. Besides, the yeast surface expression in data set [2] was 0.41.

With chain 1 M105Q G109H, in data set [1], the Kd is not below 10 µM. In addition, the yeast surface expression in data set [2] was found to be 0.299.

Turning to chain 1 M105Q G109W, in data set [1], the Kd was not below 10 µM. Further, in data set [2], the yeast surface expression stood at 0.115.

As for chain 1 M105Q G109Y, in data set [1], the Kd is not below 10 µM. Also, the yeast surface expression in data set [2] worked out at 0.231.

On to chain 1 M105Q G109M, for which the Kd in data set [1] is not below 10 µM. Moreover, the yeast surface expression in data set [2] was 0.216.

Regarding chain 1 M34Q N35S, the Kd in data set [1] is not below 10 µM. For the same variant, the yeast surface expression in data set [2] is 0.621.

On to chain 1 M34F V37C, for which the Kd in data set [1] is 0.00104 µM. For the same variant, in data set [2], the yeast surface expression stood at 0.75.

chain 1 M105R W108L: the Kd in data set [1] is 0.000333 µM. Further, the yeast surface expression in data set [2] amounted to 0.585.

As to chain 1 M105R W108A, the Kd in data set [1] is 7.33 µM. Besides, in data set [2], the yeast surface expression was 0.498.

As for chain 1 M105V D106Y, the Kd in data set [1] is not below 10 µM. Also, the yeast surface expression in data set [2] was found to be 0.489.

In the case of chain 1 M105V D106E, the Kd in data set [1] is not below 10 µM. The yeast surface expression in data set [2] turned out to be 1.02.

Consider chain 1 M34K V37W, for which the Kd in data set [1] is not below 10 µM. In addition, the yeast surface expression in data set [2] came out at 0.494.

For chain 1 M105S G109H, in data set [1], the Kd is not below 10 µM. In data set [2], the yeast surface expression was determined as 0.261.

For chain 1 M105S G109C, in data set [1], the Kd is not below 10 µM. For the same variant, the yeast surface expression in data set [2] was 0.182.

chain 1 M105S G109T: the Kd in data set [1] was not below 10 µM. Besides, the yeast surface expression in data set [2] worked out at 0.527.

In the case of chain 1 M34I V37M, in data set [1], the Kd is 0.00184 µM. Also, the yeast surface expression in data set [2] worked out at 0.847.

For the variant chain 1 M34I V37I, the Kd in data set [1] came out at 0.00827 µM. For the same variant, the yeast surface expression in data set [2] worked out at 0.831.

For the variant chain 1 M34I V37S, the Kd in data set [1] worked out at 0.0353 µM. For the same variant, in data set [2], the yeast surface expression worked out at 0.776.

With chain 1 M34I V37Q, the Kd in data set [1] amounted to 0.00184 µM. Further, the yeast surface expression in data set [2] came to 0.474.

With chain 1 M34Y V37M, the Kd in data set [1] was 0.0107 µM. For the same variant, in data set [2], the yeast surface expression was 0.807.

In the case of chain 1 M105A Y107M, the Kd in data set [1] was not below 10 µM. Further, the yeast surface expression in data set [2] was found to be 0.661.

As for chain 1 M34Y W36V, the Kd in data set [1] was not below 10 µM. Besides, the yeast surface expression in data set [2] turned out to be 0.522.

Regarding chain 1 M34Y W36K, the Kd in data set [1] was not below 10 µM. For the same variant, in data set [2], the yeast surface expression was found to be 0.113.

As for chain 1 M34L W36V, the Kd in data set [1] is not below 10 µM. Besides, the yeast surface expression in data set [2] is 0.558.

As to chain 1 M34R N35M, the Kd in data set [1] was not below 10 µM. Also, the yeast surface expression in data set [2] was found to be 1.25.

As for chain 1 M105A G109F, the Kd in data set [1] was not below 10 µM. Besides, the yeast surface expression in data set [2] stood at 0.203.

With chain 1 M105A G109A, in data set [1], the Kd was not below 10 µM. In addition, the yeast surface expression in data set [2] worked out at 0.685.

For the variant chain 1 M105R D106N, in data set [1], the Kd was 0.61 µM. The yeast surface expression in data set [2] was 0.717.

Regarding chain 1 M105A D106V, the Kd in data set [1] is not below 10 µM. In addition, the yeast surface expression in data set [2] amounted to 0.494.
